From publication PMC1079850 (2005)

Target: Tsr (Escherichia coli, UniProt P02942)
Sequence (P02942 whole entry): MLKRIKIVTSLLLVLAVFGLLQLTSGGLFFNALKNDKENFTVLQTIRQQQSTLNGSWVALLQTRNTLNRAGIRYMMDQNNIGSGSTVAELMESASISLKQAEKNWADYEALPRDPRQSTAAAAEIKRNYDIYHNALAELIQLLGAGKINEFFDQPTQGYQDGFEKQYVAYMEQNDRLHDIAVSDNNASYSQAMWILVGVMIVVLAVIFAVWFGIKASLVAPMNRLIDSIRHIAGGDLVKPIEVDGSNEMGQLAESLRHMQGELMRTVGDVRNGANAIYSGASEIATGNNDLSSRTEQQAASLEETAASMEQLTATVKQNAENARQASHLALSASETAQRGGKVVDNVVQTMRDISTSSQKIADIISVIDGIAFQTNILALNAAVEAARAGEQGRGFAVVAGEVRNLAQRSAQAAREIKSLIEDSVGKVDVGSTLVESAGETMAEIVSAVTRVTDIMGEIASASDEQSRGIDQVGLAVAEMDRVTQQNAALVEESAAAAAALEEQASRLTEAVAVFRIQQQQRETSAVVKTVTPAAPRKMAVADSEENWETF

Kd: ~10 µM
B1: CheW (protein)
chain: MTGMTNVTKLASEPSGQEFLVFTLGDEEYGIDILKVQEIRGYDQVTRIANTPAFIKGVTNLRGVIVPIVDLRIKFSQVDVDYNDNTVVIVLNLGQRVVGIVVDGVSDVLSLTAEQIRPAPEFAVTLSTEYLTGLGALGDRMLILVNIEKLLNSEEMALLDSAASEVA
